From patent US20230220068A1 (CODIAK BIOSCIENCES, published 2023) come the findings set out here.

The assay deals with T1, PrX (human, UniProt Q9P2B2).
T1 construct: also called PTGFRN overexpressing exosomes
T1 sequence (scaffold on exosomes, looked up): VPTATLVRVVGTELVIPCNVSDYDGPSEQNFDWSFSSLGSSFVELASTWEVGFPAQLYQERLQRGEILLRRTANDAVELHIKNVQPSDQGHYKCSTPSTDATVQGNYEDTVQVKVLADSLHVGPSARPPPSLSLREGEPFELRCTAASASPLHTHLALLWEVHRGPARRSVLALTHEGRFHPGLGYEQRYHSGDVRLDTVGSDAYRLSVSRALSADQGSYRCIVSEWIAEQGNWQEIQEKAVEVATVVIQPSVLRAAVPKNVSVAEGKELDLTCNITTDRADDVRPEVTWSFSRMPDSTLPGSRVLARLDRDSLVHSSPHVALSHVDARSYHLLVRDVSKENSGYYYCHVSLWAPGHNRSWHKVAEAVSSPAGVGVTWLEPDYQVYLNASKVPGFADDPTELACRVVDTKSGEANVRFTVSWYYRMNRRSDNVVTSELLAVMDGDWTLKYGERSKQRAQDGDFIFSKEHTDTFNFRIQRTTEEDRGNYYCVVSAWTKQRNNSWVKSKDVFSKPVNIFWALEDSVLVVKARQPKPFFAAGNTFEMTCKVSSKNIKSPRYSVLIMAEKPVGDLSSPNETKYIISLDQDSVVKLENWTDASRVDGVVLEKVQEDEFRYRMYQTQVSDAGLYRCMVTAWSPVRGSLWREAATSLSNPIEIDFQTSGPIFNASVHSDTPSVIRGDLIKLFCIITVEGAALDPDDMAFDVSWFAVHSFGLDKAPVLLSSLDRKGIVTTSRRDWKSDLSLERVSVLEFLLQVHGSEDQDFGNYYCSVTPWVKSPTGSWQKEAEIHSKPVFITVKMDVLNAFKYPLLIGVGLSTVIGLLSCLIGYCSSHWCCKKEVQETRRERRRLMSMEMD
Briefly: Octet, exosomes on mouse SIRPα.

B1: mouse SIRPα (receptor, UniProt P97797 32-373, looked up)
chain: KELKVTQPEKSVSVAAGDSTVLNCTLTSLLPVGPIRWYRGVGPSRLLIYSFAGEYVPRIRNVSDTTKRNNMDFSIRISNVTPADAGIYYCVKFQKGSSEPDTEIQSGGGTEVYVLAKPSPPEVSGPADRGIPDQKVNFTCKSHGFSPRNITLKWFKDGQELHPLETTVNPSGKNVSYNISSTVRVVLNSMDVNSKVICEVAHITLDRSPLRGIANLSNFIRVSPTVKVTQQSPTSMNQVNLTCRAERFYPEDLQLIWLENGNVSRNDTPKNLTKNTDGTYNYTSLFLVNSSAHREDVVFTCQVKHDQQPAITRNHTVLGFAHSSDQGSMQTFPDNNATHNWN
Take B1: the binding result is “no binding”.
